B1: HA–YKT6-WT (full-length, siRNA-resistant) [human] / SNAP29 [human (endogenous in HEK293T)] (parent)
chain 1: MKLYSLSVLYKGEAKVVLLKAAYDVSSFSFFQRSSVQEFMTFTSQLIVERSSKGTRASVKEQDYLCHVYVRNDSLAGVVIADNEYPSRVAFTLLEKVLDEFSKQVDRIDWPVGSPATIHYPALDGHLSRYQNPREADPMTKVQAELDETKIILHNTMESLLERGEKLDDLVSKSEVLGTQSKAFYKTARKQNSCCAIM
chain 2: MSAYPKSYNPFDDDGEDEGARPAPWRDARDLPDGPDAPADRQQYLRQEVLRRAEATAASTSRSLALMYESEKVGVASSEELARQRGVLERTEKMVDKMDQDLKISQKHINSIKSVFGGLVNYFKSKPVETPPEQNGTLTSQPNNRLKEAISTSKEQEAKYQASHPNLRKLDDTDPVPRGAGSAMSTDAYPKNPHLRAYHQKIDSNLDELSMGLGRLKDIALGMQTEIEEQDDILDRLTTKVDKLDVNIKSTERKVRQL

Variants of: B1
Assay: immunoprecipitation followed by mass spectrometry
Details: with SNAP29 [human (endogenous in HEK293T)], 2 h EBSS and 300 nM Torin 1, read off a plot
[1] = YKT6 siRNA-treated HEK293T WT cells

| screen value (HEK293T WT cells) | screen value [1] | Variant |
| --- | --- | --- |
| -2.3 log2 | -2.3 log2 | chain 1 T156E |
| 2 log2 | 2 log2 | chain 1 T156A |
